From patent US11981714B2, “CCR5 and CD4 siRNA-targeted phospholipid nanosomes therapeutics for treatment of HIV-1 and other diseases” (priority 2020, dated 2024)

Tested on: HIV-1 RF, NIH Cat #2804
Assay: Infectivity assay by BFUs on MAGI P4/R5 cells with and without lipofectamine (RNA-I-61)
Format: cell-based
Details: naked (unencapsulated), Presence of Lipofectamine
Protocol: A knockdown study (RNA-I-61) of the 8 nanoencapsulated and the corresponding unencapsulated (naked) siRNA preparations along with two controls described in the previous experiments was performed using freshly reconstituted materials with HIV-1 RF, NIH Cat #2804, diluted to contain ˜100 Blue Focus forming Units (BFUs) per dose of inoculum. […] The objective of this experiment was to test a range of concentrations of the inhibitors to determine the ID50 for each preparation based on the siRNA content. Since the nanosomal materials were freshly reconstituted, they were recharacterized.
The reconstituted samples as well as the naked siRNA preparations were tested for virus infection inhibitory activity. The inhibition of infectivity was measured by counting the number of blue foci due to the induced β-galactosidase activity in the host MAGI P4/R5 cells by the infecting HIV. […] The number of BFUs for each treatment at various dilutions were used to calculate the % inhibition from the corresponding dilution for the Negative_siRNA samples. The inhibitor activity was also quantified by measuring the p24 antigen concentration in each of the wells.
Infectivity Assay by BFUs: The percent inhibitions obtained with various Nanosomal_siRNA formulations versus Negative_siRNA formulations in the presence of lipofectamine are listed in Table 12.
50% Inhibitory Dose (ID50) Values: The data from RNA quantification using gel analysis and the infectivity results were used to plot dose response curves and calculate the ID50 (a.k.a. Inhibitory Concentration that results in 50% inhibition, [IC50]) values.

B1: RANTES: CC chemokine, molecular weight 7,900, natural ligand of CCR5; unencapsulated in Table 13 (protein, UniProt P13501 24-91, looked up)
C-C motif chemokine 5: SPYSSDTTPCCFAYIARPLPRAHIKEYFYTSGKCSNPAVVFVTRKNRQVCANPEKKWVREYINSLEMS
- Inhibition of BFUs by Naked_siRNA vs Negative_siRNA (Treatment Dilution 1): 0%
- Inhibition of BFUs by Naked_siRNA vs Negative_siRNA (Treatment Dilution 5): 34%
- Inhibition of BFUs by Naked_siRNA vs Negative_siRNA (Treatment Dilution 15): 18%
- Inhibition of BFUs by Naked_siRNA vs Negative_siRNA (Treatment Dilution 45): 0%
- Inhibition of BFUs by Naked_siRNA vs Negative_siRNA (Treatment Dilution 135): 0%
